In assay [1] the target is T1, human monoclonal anti-C1 domain of Factor VIII antibody RHD5. Nature of the assay: cell-based or functional assay.
In assay [2] the target is T1, human monoclonal anti-C1 domain of …. Nature of the assay: SPR (BIAcore), RHD5 immobilized on CM5, 18B6 infused. As to the method: The binding kinetics of the anti-idiotypic antibody 18B6 to inhibitor RHD5 antibody was evaluated by use of the <<Surface plasmon resonance Biacore>> method using the Pharmacia Biosensor BIAcore (Pharmacia Biosensor AB, Uppsala, Sweden). The RHD5 antibodies were immobilized on the activated surface of a CM5 probe. The anti-idiotypic antibodies 18B6 were infused in different RHD5 concentrations immobilized on the surface of the probe. The association and dissociation constants were determined: […]

For assay [3] the target is unchanged. Put plainly: competition ELISA, 18B6 with RHD5 2 µg/ml, RHD5 binding to coated recFVIII. As to the method: Recombinant Factor VIII (recFVIII) (Baxter) at 2 μg/ml in a glycine buffer, 50 μl/well, was insolubilized, then left for 2 hours at room temperature. The RHD5 antibody (or an irrelevant IgG1) at 0.6 μg/ml final concentration was pre-incubated over 2 hours with the culture supernatants in a dilution 1/1, 1/2 and 1/4 in Magic Buffer. The wells were washed 3 times with a PBS/Tween buffer, then saturated with 100 μl/well of Magic Buffer (30 min at room temperature). Afterwards, the culture supernatant was incubated with 50 μl of RHD5 (or irrelevant IgG1) (2 hours at room temperature, Magic Buffer), then, 3 washings were performed. The RHD5 antibodies bound to insolubilized recFVIII were detected by addition of 50 μl/well of a mouse polyclonal human anti-IgG HRP-labelled (Southern Biotechnology) antibodies solution of 1 μg/ml in Magic Buffer. Three successive washings were carried out with PBS/Tween, then revelation carried out with a chromogen (OPD ortho-phenyl diamine) and a reading of the obtained coloration intensity with a reader having filters corresponding to wavelengths 490/650 nm (reader Emax Molecular Devithese, Sunnyvale, Calif.).
The inhibition of RHD5 antibody binding to insolubilized recombinant FVIII was measured according to the protocol described in point IV. The concentration of used RHD5 is equal to 2 μg/ml.
On the technique in general: In an ELISA, binding on a coated surface is turned into a signal by an enzyme label.

T1 sequence (VH, as listed by the source, chain 1 of 2): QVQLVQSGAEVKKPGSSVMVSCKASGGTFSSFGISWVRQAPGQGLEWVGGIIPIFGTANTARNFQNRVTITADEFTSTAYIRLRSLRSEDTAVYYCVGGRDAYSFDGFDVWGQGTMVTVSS
T1 sequence (VL, as listed by the source, chain 2 of 2): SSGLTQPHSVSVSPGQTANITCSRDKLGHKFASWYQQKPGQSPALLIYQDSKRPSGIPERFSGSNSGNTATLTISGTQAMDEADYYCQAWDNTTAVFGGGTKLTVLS

B1: anti-idiotypic antibody 18B6 (antibody, V domains shown)
VH: QVQLQQSGAELAKPGASVKMSCKASGYTFTTYWMHWIKQRPGQDLEWIGYINPTSGYTEYNQNFKDKATLTADKSSSTAYMQLNSLTSEDSAVYFCARSGAYYRYDDAMDSWGQGTSVTVSS
VL: QIVLSQSPAILSASPGEKVTMTCRASSSVSYMNWYQQKPGSSPKPWIYATSNLASGVPARFSGSGSGTSYSLTISRVEAEDAATYYCQQWSSNPPMLTFGAGTKLELK
notes: also called 18B6 anti-RHD5 clone
As a reminder, the Kd is the equilibrium constant for the complex coming apart. The term koff denotes the first-order rate constant of dissociation. Higher therefore signals fast dissociation. One may read the kon as the second-order rate constant of association. Lower therefore signals slow association. With B1, the “neutralisation of RHD5 inhibitory activity at an equimolar RHD5/18B6 ratio” value in assay [1] came to 50%. Further, in assay [2], binding was put at a Kd of 3.4 nM, the off-rate (koff) was found to be 1.45e-05 s⁻¹ and the on-rate constant (kon) stood at 4260 M⁻¹ s⁻¹. In assay [3], the “inhibition of binding at an equimolar ratio (%)” value stood at 92% and the “molar ratio RHD5/18B6 giving 50% inhibition” value came to 2.5 molar ratio RHD5/18B6.
